Data: patent US12138316B2, “Anti-B7H3 antibody-drug conjugate and use thereof” (Duality Biologics (Suzhou) Co., Ltd., priority 2023, dated 2024)
One block for each molecule: values may come before it.

What was measured:
[1] = Pharmacokinetic study, single intravenous infusion in cynomolgus monkeys; conditions: both sexes, cynomolgus monkey, in vivo
Experimental: 18 cynomolgus monkeys (half female and half male) were weighed one day before administration, stratified based on the weight, and then randomly divided into 3 groups (3 females and 3 males/group): a low dose group (1 mg/kg), a medium dose group (3 mg/kg), and a high dose group (10 mg/kg). […] Blood was collected from the forelimb veins of cynomolgus monkeys in each group, and treated samples of the blood collected at 0 h before and 0.5 […], and 672 h after the administration were used as PK samples. After the blood collection at each time point was completed, serum was obtained by centrifugation for sample analysis.

human B7H3 = biological target: T1, human B7H3 (Homo sapiens, UniProt Q5ZPR3); test: FACS binding to human B7H3-expressing cells MCF-7
T1 construct: MCF-7 cells expressing human full-length B7H3; host or cells: MCF-7
T1 sequence (Q5ZPR3 29-534): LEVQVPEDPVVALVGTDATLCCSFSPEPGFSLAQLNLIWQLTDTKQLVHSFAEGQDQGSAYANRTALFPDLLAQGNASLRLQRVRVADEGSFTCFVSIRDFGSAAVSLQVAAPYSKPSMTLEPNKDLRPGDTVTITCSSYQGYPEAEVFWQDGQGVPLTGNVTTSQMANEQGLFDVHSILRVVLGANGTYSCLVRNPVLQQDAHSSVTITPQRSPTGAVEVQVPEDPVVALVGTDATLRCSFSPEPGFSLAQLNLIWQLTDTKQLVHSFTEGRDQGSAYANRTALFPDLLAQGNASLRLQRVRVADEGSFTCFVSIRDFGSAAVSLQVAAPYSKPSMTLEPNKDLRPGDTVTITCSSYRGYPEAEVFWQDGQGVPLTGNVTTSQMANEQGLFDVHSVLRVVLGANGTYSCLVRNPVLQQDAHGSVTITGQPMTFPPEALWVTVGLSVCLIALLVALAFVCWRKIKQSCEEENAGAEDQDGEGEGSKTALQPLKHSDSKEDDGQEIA
Experimental: (§1) FACS was used to detect the binding of antibodies to human B7H3. This method allows quantitative analysis and identification of specific molecules expressed on the surface of living cells. Unlabeled cells were used as a control to set a threshold before the assay, and the percentage change for each group that exceeded the fluorescence intensity threshold was analyzed. MCF-7 cells expressing human full-length B7H3 (1×10^5 cells/well) were incubated with various concentrations of antibodies (3.16-fold serially diluted with 1×DPBS/1% BSA from 50 nM to 0.0005 nM) in a volume of 100 μL/well in a refrigerator set to 4° C. for 1 h. Anti-human B7H3 reference antibody enoblituzumab (MacroGeneics) was used as a positive control. Human IgG1 isotype antibody was used as a negative control. After washing the cells with 1×DPBS/1% BSA, Alexa 647 goat anti-human antibody (diluted in a 1:500 ratio in 1×DPBS/1% BSA) was added. The cells were incubated in a refrigerator set to 4° C. for 0.5 h in the dark. The mean fluorescence intensity (MFI) of the cells was measured by a flow cytometry and analyzed by FlowJo. EC50 values were calculated by four-parameter non-linear regression analysis using GraphPad Prism 7 software.

cynomolgus monkey B7H3 [2] = test: FACS binding to cynomolgus monkey B7H3-transfected stable cell pool
Experimental: as §1, with “to cynomolgus monkey” for “to human”, “B7H3. FlpinCHO” for “B7H3. This method allows quantitative analysis and identification of specific molecules expressed on the surface of living cells. Unlabeled”, “were transfected with cynomolgus monkey B7H3 (W3XX088-FlpinCHO.cProl.pool) (1×10^5 cells/well),” for “were used as a control to set a threshold before the assay,”, “the transfected” for “the percentage change for each group that exceeded the fluorescence intensity threshold was analyzed. MCF-7”, “cells” for “cells expressing human full-length B7H3 (1×10^5 cells/well)”

cynomolgus monkey B7H3 [3] = test: Binding affinity for cynomolgus monkey B7H3 (SPR)
Experimental: The affinity of antibodies for cynomolgus monkey B7H3 was determined using surface plasmon resonance (SPR). The affinity of antibodies for cynomolgus monkey B7H3 was determined by Biacore 8K. An activator was prepared by mixing 400 mM EDC and 100 mM NHS (GE) immediately prior to injection into the channel. The CM5 sensor chip was activated for 420 seconds with the activator. Goat anti-human Fc IgG (30 μg/mL in 10 mM NaAc, pH 4.5) was then injected into the channel at a flow rate of 10 μL/min for 420 seconds. The chip was deactivated by 1 M ethanolamine hydrochloric acid. The antibodies diluted in running buffer (1×HBS-EP+) were injected into the channel at a flow rate of 10 μL/min for 30 seconds. […] Glycine (10 mM, pH 1.5) was injected as regeneration buffer after the dissociation phase.
The sensorgrams for the reference channel and the buffer channel were subtracted from the test sensorgrams. The experimental data for 6 analyte concentrations (50 nM, 25 nM, 12.5 nM, 6.25 nM, 3.125 nM, and 1.563 nM) were fitted with a 1:1 binding model. The molecular weight of the cynomolgus monkey B7H3 used in the calculation was 49 kDa.

human 2IgB7H3 = biological target: T2, human 2IgB7H3 (Homo sapiens, UniProt Q5ZPR3); test: Binding affinity for human 2IgB7H3 (SPR)
T2 construct: His tag; purchased ACROBiosystems B73-H52E2
T2 sequence (Q5ZPR3 29-316 isoform Q5ZPR3-2 limits assumed): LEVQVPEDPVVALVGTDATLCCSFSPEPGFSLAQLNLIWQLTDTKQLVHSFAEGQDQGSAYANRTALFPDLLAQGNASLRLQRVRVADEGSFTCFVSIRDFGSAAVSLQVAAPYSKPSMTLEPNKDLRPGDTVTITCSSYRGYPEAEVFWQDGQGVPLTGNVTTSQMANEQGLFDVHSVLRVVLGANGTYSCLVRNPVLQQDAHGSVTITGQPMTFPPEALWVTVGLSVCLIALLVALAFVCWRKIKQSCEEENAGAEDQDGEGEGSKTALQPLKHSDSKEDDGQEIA
Experimental: The affinity of antibodies for human 2IgB7H3 was determined using surface plasmon resonance (SPR). The affinity of antibodies for human 2IgB7H3 was determined by Biacore 8K. An activator was prepared by mixing 400 mM EDC and 100 mM NHS (GE) immediately prior to injection into the channel. The CM5 sensor chip was activated for 420 seconds with the activator. Goat anti-human Fc IgG (30 μg/mL in 10 mM NaAc, pH 4.5) was then injected into the channel at a flow rate of 10 μL/min for 420 seconds. The chip was deactivated by 1 M ethanolamine hydrochloric acid. The antibodies diluted in running buffer (1×HBS-EP+) were injected into the channel at a flow rate of 10 μL/min for 30 seconds. Seven concentrations (500 nM, 250 nM, 125 nM, 62.5 nM, 31.25 nM, 15.625 nM, and 7.813 nM) of analyte human 2IgB7H3 were injected sequentially into the channel at a flow rate of 30 μL/min for an association phase of 120 seconds, followed by dissociation of 300 seconds. Glycine (10 mM, pH 1.5) was injected as regeneration buffer after the dissociation phase.
The sensorgrams for the reference channel and the buffer channel were subtracted from the test sensorgrams. The experimental data were fitted with a 1:1 binding model. The molecular weight of the human 2IgB7H3 used in the calculation was 25.2 kDa.

[4] = system: human B7H3-expressing cells MCF-7; test: Internalization test (HCS) in MCF-7 cells; assay type: cell-based
Experimental: Antibody internalization was determined by operetta CLS (PerkinElmer), a high-content imaging and analysis system that can collect and analyze images of samples at high speed and high sensitivity. MCF-7 cells expressing human full-length B7H3 (1.5×10^4 cells/well) were seeded into a 96-well clear bottom black plate pre-coated with 8 μg/mL poly-D-lysine. After incubation in an incubator set to 37° C., 5% CO2 overnight, various concentrations of the antibodies (3.16-fold serially diluted with 1×DPBS/1% BSA from 50 nM to 0.0005 nM) were incubated in a volume of 100 μL/well in a refrigerator set to 4° C. for 2 h. Anti-human B7H3 reference antibody enoblituzumab (MacroGeneics) was used as a positive control. Human IgG1 isotype antibody was used as a negative control. After washing the cells with 1×DPBS/1% BSA, Alexa 647 goat anti-human antibody (diluted in a 1:500 ratio in 1×DPBS/1% BSA) was added. The cells were incubated in a refrigerator set to 4° C. for 1 h in the dark. The cells were then washed once and resuspended in 1×DPBS/1% BSA at 37° C. for 2 h. […] The mean fluorescence intensity (MFI) of the cells was measured and analyzed by operetta CLS. EC50 values were calculated by four-parameter non-linear regression analysis using GraphPad Prism 7 software.

human 4IgB7H3 = biological target: T3, human 4IgB7H3 (Homo sapiens, UniProt Q5ZPR3); test: Binding affinity for human 4IgB7H3 (SPR)
T3 construct: Uniprot ID: Q5ZPR3, amino acids 29-461; made in house; host or cells: Expi293F
T3 sequence (Q5ZPR3 29-461): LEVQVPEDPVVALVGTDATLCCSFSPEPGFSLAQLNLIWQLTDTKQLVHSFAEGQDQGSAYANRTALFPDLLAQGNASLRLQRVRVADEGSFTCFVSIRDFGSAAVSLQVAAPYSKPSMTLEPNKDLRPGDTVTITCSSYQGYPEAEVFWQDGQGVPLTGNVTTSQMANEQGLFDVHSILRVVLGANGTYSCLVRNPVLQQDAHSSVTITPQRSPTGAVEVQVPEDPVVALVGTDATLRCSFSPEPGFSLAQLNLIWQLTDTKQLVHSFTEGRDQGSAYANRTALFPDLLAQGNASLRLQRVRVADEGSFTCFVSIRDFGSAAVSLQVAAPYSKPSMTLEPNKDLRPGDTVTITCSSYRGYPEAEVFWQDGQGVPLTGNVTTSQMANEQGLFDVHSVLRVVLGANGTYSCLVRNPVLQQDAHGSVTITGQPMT
Experimental: The affinity of antibodies for human 4IgB7H3 was determined using surface plasmon resonance (SPR). The affinity of antibodies for human 4IgB7H3 was determined by Biacore 8K. An activator was prepared by mixing 400 mM EDC and 100 mM NHS (GE) immediately prior to injection into the channel. The CM5 sensor chip was activated for 420 seconds with the activator. Goat anti-human Fc IgG (30 μg/mL in 10 mM NaAc, pH 4.5) was then injected into the channel at a flow rate of 10 μL/min for 420 seconds. The chip was deactivated by 1 M ethanolamine hydrochloric acid. The antibodies diluted in running buffer (1×HBS-EP+) were injected into the channel at a flow rate of 10 μL/min for 30 seconds. Seven concentrations (100 nM, 50 nM, 25 nM, 12.5 nM, 6.25 nM, […], and 1.563 nM) of analyte human 4IgB7H3 were injected sequentially into the channel at a flow rate of 30 μL/min for an association phase of 180 seconds, followed by dissociation of 3600 seconds. Glycine (10 mM, pH 1.5) was injected as regeneration buffer after the dissociation phase.
The sensorgrams for the reference channel and the buffer channel were subtracted from the test sensorgrams. The experimental data were fitted with a 1:1 binding model. The molecular weight of the human 4IgB7H3 used in the calculation was 47.8 kDa.

Molecule: CC[C@@]1(O)C(=O)OCc2c1cc1n(c2=O)Cc2c-1nc1cc(F)c(C)c3c1c2[C@@H](NC(=O)C[C@H](C)O)CC3 [P-III-30]
AUC(0-t) ([1]; 3 mg/kg): 1.07 ng·h/mL
Cmax ([1]; 3 mg/kg): 0.133 ng/mL
AUC(0-t) ([1]; 10 mg/kg): 44.5 ng·h/mL
Cmax ([1]; 10 mg/kg): 0.573 ng/mL

Maximum MFI (human B7H3): 4644
ka (cynomolgus monkey B7H3 [3]): 185000 M⁻¹ s⁻¹
kd (dissociation rate constant) (cynomolgus monkey B7H3 [3]): 8.14e-05 s⁻¹
ka (human 2IgB7H3): 64400 M⁻¹ s⁻¹
kd (dissociation rate constant) (human 2IgB7H3): 0.0168 s⁻¹
ka (human 4IgB7H3): 124000 M⁻¹ s⁻¹
kd (dissociation rate constant) (human 4IgB7H3): 0.000126 s⁻¹
B1: Enoblituzumab (MacroGenics): anti-B7H3 benchmark antibody (MacroGenics), SEQ ID NOs: 117 and 119 in U.S. 20120294796A1 (antibody, chains of the INN, looked up)
heavy: EVQLVESGGGLVQPGGSLRLSCAASGFTFSSFGMHWVRQAPGKGLEWVAYISSDSSAIYYADTVKGRFTISRDNAKNSLYLQMNSLRDEDTAVYYCGRGRENIYYGSRLDYWGQGTTVTVSSASTKGPSVFPLAPSSKSTSGGTAALGCLVKDYFPEPVTVSWNSGALTSGVHTFPAVLQSSGLYSLSSVVTVPSSSLGTQTYICNVNHKPSNTKVDKRVEPKSCDKTHTCPPCPAPELVGGPSVFLLPPKPKDTLMISRTPEVTCVVVDVSHEDPEVKFNWYVDGVEVHNAKTKPPEEQYNSTLRVVSVLTVLHQDWLNGKEYKCKVSNKALPAPIEKTISKAKGQPREPQVYTLPPSREEMTKNQVSLTCLVKGFYPSDIAVEWESNGQPENNYKTTPLVLDSDGSFFLYSKLTVDKSRWQQGNVFSCSVMHEALHNHYTQKSLSLSPG
light: DIQLTQSPSFLSASVGDRVTITCKASQNVDTNVAWYQQKPGKAPKALIYSASYRYSGVPSRFSGSGSGTDFTLTISSLQPEDFATYYCQQYNNYPFTFGQGTKLEIKRTVAAPSVFIFPPSDEQLKSGTASVVCLLNNFYPREAKVQWKVDNALQSGNSQESVTEQDSKDSTYSLSSTLTLSKADYEKHKVYACEVTHQGLSSPVTKSFNRGEC
Maximum MFI (cynomolgus monkey B7H3 [2]): 19700
Antibody internalization Maximum MFI [4]: 39777
